Source: patent US20090304715A1 (TOKYO UNIVERSITY OF SCIENCE, published 2009)

T1: CD20 on CD20-positive human Burkitt's lymphoma Ramos cells (human, UniProt P11836 1-297)
T1 construct: whole, on cells; also called B cell-specific differentiation antigen CD20
T1 sequence (looked up): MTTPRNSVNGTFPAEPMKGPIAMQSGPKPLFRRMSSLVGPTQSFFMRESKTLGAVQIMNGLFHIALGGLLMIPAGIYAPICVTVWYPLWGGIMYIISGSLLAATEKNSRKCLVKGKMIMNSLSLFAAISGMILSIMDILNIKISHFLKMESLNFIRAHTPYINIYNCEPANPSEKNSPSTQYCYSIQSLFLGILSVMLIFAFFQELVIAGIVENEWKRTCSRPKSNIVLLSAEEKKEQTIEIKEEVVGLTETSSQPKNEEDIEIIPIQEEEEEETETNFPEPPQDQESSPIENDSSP

T2: recombinant FcγRIIB extracellular domain-Gly-His6-GST (human, UniProt P31994 43-217)
T2 construct: extracellular domain; Expressed in 293T cells, purified on Ni-NTA; also called FcγRIIB/Gly-His6-GST; not shown: GST amplified from pGEX-2TK
T2 sequence: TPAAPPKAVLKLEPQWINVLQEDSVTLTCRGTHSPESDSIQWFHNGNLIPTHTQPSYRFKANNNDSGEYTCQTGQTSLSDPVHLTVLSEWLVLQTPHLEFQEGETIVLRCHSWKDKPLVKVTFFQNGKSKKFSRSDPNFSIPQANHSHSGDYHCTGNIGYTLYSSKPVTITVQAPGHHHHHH

T3: recombinant FcγRIIA extracellular domain-Gly-His6-GST (human, UniProt P12318 34-217)
T3 construct: extracellular domain; Expressed in 293T cells, purified on Ni-NTA; also called FcγRIIA/Gly-His6-GST; not shown: GST amplified from pGEX-2TK
T3 sequence: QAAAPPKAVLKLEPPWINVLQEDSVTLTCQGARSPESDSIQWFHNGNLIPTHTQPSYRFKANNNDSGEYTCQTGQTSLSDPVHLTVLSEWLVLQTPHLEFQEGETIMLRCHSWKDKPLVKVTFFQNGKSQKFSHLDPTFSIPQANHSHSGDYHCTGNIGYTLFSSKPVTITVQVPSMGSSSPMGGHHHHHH


Key:
[1] = target: T1, CD20 on CD20-positive human Burkitt's …; assay: flow cytometry on CD20-positive Ramos cells, antibody 50 nM, FITC anti-human kappa
Procedure: CD20-positive human Burkitt's lymphoma Ramos cells were cultured using RPMI1640 containing 10% heat-inactivated fetal bovine serum, 1 mM sodium pyruvate (Wako), 100 U/ml penicillin, and 100 μg/ml streptomycin at 37° C. under 5% CO₂. The Ramos cell culture solution was centrifuged at 600 g for five minutes. After the medium was removed, the cells were suspended in an appropriate volume of medium. After another centrifugation at 600 g for five minutes, the medium was removed. 5 ml of FACS buffer (PBS containing 0.1% BSA and 0.02% NaN₃) was added to suspend the cells, and this was left on ice and blocked for 30 minutes. The supernatant was removed after centrifugation at 600 g for five minutes, cells were suspended at 5×10⁶ cells/ml in FACS buffer, and 100 μl were aliquoted per 1.5-ml tube. […] The supernatants were removed, and cells were washed by adding 500 μl of FACS buffer. This process was repeated twice to completely remove the non-reacted antibodies. Cells were suspended in 100 μl of FACS buffer containing 20 μg/ml FITC-labeled goat anti-human Kappa chain antibody (Biosource International), and allowed to stand on ice in the dark for 30 minutes. Cells were washed with the method described above, suspended in 100 μl of FACS buffer, filtered through a mesh with a hole size of 59 μm, and transferred into FACS tubes. The CD20 binding activity of each antibody was analyzed by fluorescence measurement using FACScan (Becton Dickinson) (FIG. 8).

[2] = target: T2, recombinant FcγRIIB extracellular …; assay: ELISA, plate-coated recombinant FcγRIIB; Ab50 = antibody concentration at 50% of maximal binding
Procedure: (§1) The prepared FcγR (FcγRIA, FcγRIIA, FcγRIIB, FcγRIIIA^Val, and FcγRIIIA^Phe) were adjusted to 4 μg/ml with PBS, aliquoted into 96-well plates at 50 μl per well, and allowed to stand at 4° C. overnight. Then the solutions were discarded and 180 μl of ELISA Assay buffer (0.5% BSA, 2 mM EDTA, 0.05% Tween20, 25 mM TBS (pH 7.4)) was added to each well. The plates were allowed to stand and blocked at 37° C. for 2 hours. The solutions were discarded, 50 μl of antibody solutions serially diluted with ELISA Assay buffer were added to each well and allowed to react at 37° C. for two hours. The antibody solutions were discarded and wells were washed three times with 150 μl of ELISA Assay buffer. 50 μl of ELISA Assay buffer containing 0.33 μg/ml HRP-labeled goat anti-human Kappa chain antibody was aliquoted into each well and allowed to stand at 37° C. for one hour. After the antibody solution was removed, wells were washed three times with 150 μl of ELISA Assay buffer. 50 μl of a substrate solution (sodium citrate buffer (pH 5.0) containing 0.4% o-phenylenediamine dihydrochloride and 0.003% H₂O₂) was aliquoted and allowed to stand at room temperature in the dark for ten minutes. Then measurements at A450 were carried out using a microplate reader (FIG. 9).

[3] = target: T4, recombinant FcγRIA extracellular domain-Gly-His6-GST (human, UniProt P12314 16-292); assay: ELISA, plate-coated recombinant FcγRIA extracellular domain-Gly-His6-GST, HRP anti-human kappa
T4 construct: extracellular domain; Residues from the XbaI junction between receptor and tag are not spelled out; also called FcγRIA/Gly-His6-GST; not shown: GST amplified from pGEX-2TK
Procedure: as §1

[4] = target: T5, recombinant FcγRIIIA (Val^158 type) extracellular domain-Gly-His6-GST (human, UniProt P08637 17-208); assay: ELISA, plate-coated recombinant FcγRIIIA (Val158); Ab50 = antibody concentration at 50% of maximal binding
T5 construct: extracellular domain; Valine at position 158 (printed once as 157V); The database entry may carry Phe at this position; also called type-V FcγRIIIA; FcγRIIIA(157V); not shown: GST amplified from pGEX-2TK
Procedure: as §1

[5] = target: T3, recombinant FcγRIIA extracellular …; assay: ELISA, plate-coated recombinant FcγRIIA; Ab50 = antibody concentration at 50% of maximal binding; reference M
Procedure: as §1

T4 sequence (P12314 other isoform, or with tags, fused parts or gaps): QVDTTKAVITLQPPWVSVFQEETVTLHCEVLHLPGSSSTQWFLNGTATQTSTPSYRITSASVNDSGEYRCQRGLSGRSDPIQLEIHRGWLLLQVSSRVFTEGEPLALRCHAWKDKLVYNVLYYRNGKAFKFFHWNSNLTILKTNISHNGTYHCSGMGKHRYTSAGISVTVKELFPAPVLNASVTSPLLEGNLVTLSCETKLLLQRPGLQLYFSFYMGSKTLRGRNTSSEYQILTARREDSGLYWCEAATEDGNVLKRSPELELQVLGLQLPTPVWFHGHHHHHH
T5 sequence (P08637 other isoform, or with tags, fused parts or gaps): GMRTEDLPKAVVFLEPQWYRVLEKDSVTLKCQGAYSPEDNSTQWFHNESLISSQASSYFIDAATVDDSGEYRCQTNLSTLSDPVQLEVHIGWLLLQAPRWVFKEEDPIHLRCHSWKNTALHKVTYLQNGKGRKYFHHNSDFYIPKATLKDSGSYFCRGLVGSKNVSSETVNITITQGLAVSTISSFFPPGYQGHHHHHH

| Binder | binding result [1] | EC50 [2] [nM] | binding result [3] | EC50 [4] [nM] | fold difference of Ab50 against M [5] [times] |
| --- | --- | --- | --- | --- | --- |
| mouse/human chimeric anti-CD20 antibody, Fc monomer (M) (antibody, Variable regions of mouse 1F5, human IgG1/kappa constant regions; Produced in CHO DG44; also called Anti-CD20 HC Fc Monomer) heavy: not shown light: QIVLSQSPAILSASPGEKVTMTCRASSSLSFMHWYQQKPGSSPKPWIYATSNLASGVPARFSGSGSGTSYSLTISRVEAEDAATYFCHQWSSNPLTFGAGTKLLETVAAPSVFIFPPSDEQLKSGTASVVCLLNNFYPREAKVQWKVDNALQSGNSQESVTEQDSKDSTYSLSSTLTLSKADYEKHKVYACEVTHQGLSSPVTKSFNRGEC | binds | ~50 | binds | ~30 | – |
| modified anti-CD20 antibody, Fc trimer with one G4S spacer (T1) (antibody) heavy: not shown light: QIVLSQSPAILSASPGEKVTMTCRASSSLSFMHWYQQKPGSSPKPWIYATSNLASGVPARFSGSGSGTSYSLTISRVEAEDAATYFCHQWSSNPLTFGAGTKLLETVAAPSVFIFPPSDEQLKSGTASVVCLLNNFYPREAKVQWKVDNALQSGNSQESVTEQDSKDSTYSLSSTLTLSKADYEKHKVYACEVTHQGLSSPVTKSFNRGEC | – | ~0.5 | – | ~0.5 | ~100 |
| modified anti-CD20 antibody, Fc dimer with three G4S spacers (D3) (antibody) heavy: not shown light: QIVLSQSPAILSASPGEKVTMTCRASSSLSFMHWYQQKPGSSPKPWIYATSNLASGVPARFSGSGSGTSYSLTISRVEAEDAATYFCHQWSSNPLTFGAGTKLLETVAAPSVFIFPPSDEQLKSGTASVVCLLNNFYPREAKVQWKVDNALQSGNSQESVTEQDSKDSTYSLSSTLTLSKADYEKHKVYACEVTHQGLSSPVTKSFNRGEC | binds | ~5 | binds | ~2 | ~60 |
| modified anti-CD20 antibody, Fc trimer with no spacer (T0) (antibody) heavy: not shown light: QIVLSQSPAILSASPGEKVTMTCRASSSLSFMHWYQQKPGSSPKPWIYATSNLASGVPARFSGSGSGTSYSLTISRVEAEDAATYFCHQWSSNPLTFGAGTKLLETVAAPSVFIFPPSDEQLKSGTASVVCLLNNFYPREAKVQWKVDNALQSGNSQESVTEQDSKDSTYSLSSTLTLSKADYEKHKVYACEVTHQGLSSPVTKSFNRGEC | binds | – | binds | ~2 | ~100 |
| modified anti-CD20 antibody, Fc trimer with three G4S spacers (T3) (antibody) heavy: not shown light: QIVLSQSPAILSASPGEKVTMTCRASSSLSFMHWYQQKPGSSPKPWIYATSNLASGVPARFSGSGSGTSYSLTISRVEAEDAATYFCHQWSSNPLTFGAGTKLLETVAAPSVFIFPPSDEQLKSGTASVVCLLNNFYPREAKVQWKVDNALQSGNSQESVTEQDSKDSTYSLSSTLTLSKADYEKHKVYACEVTHQGLSSPVTKSFNRGEC | – | ~0.5 | – | ~0.5 | ~100 |
| modified anti-CD20 antibody, Fc trimer with two G4S spacers (T2) (antibody) heavy: not shown light: QIVLSQSPAILSASPGEKVTMTCRASSSLSFMHWYQQKPGSSPKPWIYATSNLASGVPARFSGSGSGTSYSLTISRVEAEDAATYFCHQWSSNPLTFGAGTKLLETVAAPSVFIFPPSDEQLKSGTASVVCLLNNFYPREAKVQWKVDNALQSGNSQESVTEQDSKDSTYSLSSTLTLSKADYEKHKVYACEVTHQGLSSPVTKSFNRGEC | – | ~0.5 | – | ~0.5 | ~100 |
| modified anti-CD20 antibody, Fc dimer with two G4S spacers (D2) (antibody) heavy: not shown light: QIVLSQSPAILSASPGEKVTMTCRASSSLSFMHWYQQKPGSSPKPWIYATSNLASGVPARFSGSGSGTSYSLTISRVEAEDAATYFCHQWSSNPLTFGAGTKLLETVAAPSVFIFPPSDEQLKSGTASVVCLLNNFYPREAKVQWKVDNALQSGNSQESVTEQDSKDSTYSLSSTLTLSKADYEKHKVYACEVTHQGLSSPVTKSFNRGEC | – | – | – | ~30 | – |
| modified anti-CD20 antibody, Fc dimer with one G4S spacer (D1) (antibody) heavy: not shown light: QIVLSQSPAILSASPGEKVTMTCRASSSLSFMHWYQQKPGSSPKPWIYATSNLASGVPARFSGSGSGTSYSLTISRVEAEDAATYFCHQWSSNPLTFGAGTKLLETVAAPSVFIFPPSDEQLKSGTASVVCLLNNFYPREAKVQWKVDNALQSGNSQESVTEQDSKDSTYSLSSTLTLSKADYEKHKVYACEVTHQGLSSPVTKSFNRGEC | – | – | – | ~30 | – |
| modified anti-CD20 antibody, Fc dimer with no spacer (D0) (antibody) heavy: not shown light: QIVLSQSPAILSASPGEKVTMTCRASSSLSFMHWYQQKPGSSPKPWIYATSNLASGVPARFSGSGSGTSYSLTISRVEAEDAATYFCHQWSSNPLTFGAGTKLLETVAAPSVFIFPPSDEQLKSGTASVVCLLNNFYPREAKVQWKVDNALQSGNSQESVTEQDSKDSTYSLSSTLTLSKADYEKHKVYACEVTHQGLSSPVTKSFNRGEC | binds | – | binds | ~2 | – |
